Laboratory results published in publication doi:10.1101/164319.
One block for each substance: values may come before it.

Biological target: Arp2/3 complex from strain Arp2cys-Arp3cys, labeled with Alexa 488 and Alexa 594 (Schizosaccharomyces pombe) (UniProt P78774)
Test: FRET or BRET

Chain of UniProt P78774 (P78774 whole entry, looked up, one chain of several): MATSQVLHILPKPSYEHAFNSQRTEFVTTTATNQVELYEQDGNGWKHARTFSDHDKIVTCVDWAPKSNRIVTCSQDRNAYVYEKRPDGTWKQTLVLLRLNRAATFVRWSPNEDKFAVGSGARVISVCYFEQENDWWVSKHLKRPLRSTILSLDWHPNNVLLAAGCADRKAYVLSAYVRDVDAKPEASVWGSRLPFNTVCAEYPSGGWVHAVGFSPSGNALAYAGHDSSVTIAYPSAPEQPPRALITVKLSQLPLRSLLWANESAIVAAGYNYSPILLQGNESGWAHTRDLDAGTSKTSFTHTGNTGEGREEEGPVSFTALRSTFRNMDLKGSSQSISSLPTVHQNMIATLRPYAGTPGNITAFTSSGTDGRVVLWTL

increase of mean ETeff at 20 μM CA: 0.06
Substance: S. pombe Wsp1-CA (541SC–574D) (from UniProt O36027 541-574) (domain or fragment)

increase of mean ETeff at 20 μM VCA: 0.13
Substance: S. pombe Wsp1p-VCA (497Q–574D) (from UniProt O36027 497-574) (domain or fragment)

increase of mean ETeff at 2 μM actin-VCA: 0.12
Substance: VCA crosslinked to an actin monomer (actin-VCA) (from UniProt O36027 497-574; P68139 1-377) (complex)
